Data reported in article PMC6677831, “X-ray Crystallographic Structure and Oligomerization of Gloeobacter Rhodopsin” (Scientific Reports, 2019).

Legend:
[1] = target: Mastigocladopsis repens halorhodopsin (Mastigocladopsis repens); test: not stated; unpublished observation of the authors
[2] = target: T1, Gloeobacter rhodopsin (GR) (Gloeobacter violaceus, UniProt Q7NP59); test: X-ray crystal structure, […] A; format: binding; conditions: covalent, protonated Schiff base at Lys257; dark state; bicelle crystals, pH 3.4, 100 K
T1 construct: gene gll0198; wild type, C-terminal 6xHis tag, expressed in E. coli C43(DE3) with added retinal; 33 kDa; monomer at pH 3.0, pentamer at pH 8.0 in DDM

[3] = target: the molecule itself; test: SEC; Superdex 200 10/300 GL; 20 mM Tris-HCl pH 8.0, 300 mM NaCl, 0.04% DDM
[4] = target: the molecule itself; test: DEER spectroscopy; Q-band, 80 K, 20% deuterated glycerol, GR-67R1 in detergent micelles at pH 8.0; distances between spin labels of protomers

In the case of “Mastigocladopsis repens halorhodopsin (natural protein)”, the stoichiometry N [1] is reported as 3.

In the case of `CC1=C(/C=C/C(C)=C/C=C/C(C)=C/C=O)C(C)(C)CCC1` [all-trans-retinal], the “X-ray crystal structure, 2.0 A” value [2] is reported as “the all-trans-retinal chromophore is covalently bound to the opsin protein moiety via a Schiff base”.

B1: Gloeobacter rhodopsin (natural protein, Gloeobacter violaceus PCC 7421)
chain: MLMTVFSSAPELALLGSTFAQVDPSNLSVSDSLTYGQFNLVYNAFSFAIAAMFASALFFFSAQALVGQRYRLALLVSAIVVSIAGYHYFRIFNSWDAAYVLENGVYSLTSEKFNDAYRYVDWLLTVPLLLVETVAVLTLPAKEARPLLIKLTVASVLMIATGYPGEISDDITTRIIWGTVSTIPFAYILYVLWVELSRSLVRQPAAVQTLVRNMRWLLLLSWGVYPIAYLLPMLGVSGTSAAVGVQVGYTIADVLAKPVFGLLVFAIALVKTKADQESSEPHAAIGAAANKSGGSLIS
modifications: all-trans-retinal covalently bound to Lys257 via a protonated Schiff base
notes: Gloeobacter rhodopsin (GR), light-driven proton pump of Gloeobacter violaceus PCC 7421; 33 kDa; Membrane protein in detergent micelles (0.04% DDM) in the oligomerisation experiments; also called GR; wild-type GR; source: E. coli C43(DE3), purified (TALON Co2+ column, Superdex 200) in OG or DDM
B1: binds [3].

B2: spin-labeled GR-67R1 (natural protein, Gloeobacter violaceus PCC 7421)
chain: MLMTVFSSAPELALLGSTFAQVDPSNLSVSDSLTYGQFNLVYNAFSFAIAAMFASALFFFSAQALVCQRYRLALLVSAIVVSIAGYHYFRIFNSWDAAYVLENGVYSLTSEKFNDAYRYVDWLLTVPLLLVETVAVLTLPAKEARPLLIKLTVASVLMIATGYPGEISDDITTRIIWGTVSTIPFAYILYVLWVELSRSLVRQPAAVQTLVRNMRWLLLLSWGVYPIAYLLPMLGVSGTSAAVGVQVGYTIADVLAKPVFGLLVFAIALVKTKADQESSEPHAAIGAAANKSGGSLIS
modifications: R1 nitroxide side chain at Cys67; all-trans-retinal bound to Lys257 via a Schiff base
notes: Gloeobacter rhodopsin (GR) of Gloeobacter violaceus PCC 7421 with G67C, spin-labeled at 67; also called spin labeled G67C mutant of GR
With B2 the “stoichiometry N” value [4] was 5.
